These results are taken from patent US20230340160A1 (published 2023).

Test [1] deals with T1, Human EGFR (immobilized on CM5 sensor chip) (human, UniProt P00533 25-645, limits assumed).
T1 construct: 8000 RU immobilized by amine coupling; also called Epidermal Growth Factor Receptor
As to the kind of experiment: SPR; construct (200 nM) captured on immobilized human EGFR, then CD3 fusion injected (FIG. 18A). The procedure:
Analysis of simultaneous binding of the T-cell bispecific constructs to the tumor antigen and the human CD3ε was performed by direct coupling of 1650 resonance units (RU) of biotinylated D3 domain of MCSP on a sensor chip SA using the standard coupling procedure. Human EGFR was immobilized using standard amino coupling procedure. 8000 RU were immobilized on a CM5 sensor chip at pH 5.5.
Different T-cell bispecific constructs were captured for 60 s at 200 nM. Human CD3γ(G₄S)₅CD3ε-AcTev-Fc(knob)-Avi/Fc(hole) was subsequently passed at a concentration of 2000 nM and a flow rate of 40 µl/min for 60 s. Bulk refractive index differences were corrected for by subtracting the response obtained on a reference flow cell where the recombinant CD3ε was flown over a surface with immobilized D3 domain of MCSP or EGFR without captured T-cell bispecific constructs.

The target of test [2] is T2, human CD3 expressed on Jurkat cells (human, UniProt P07766 23-207).
T2 construct: CD3 complex on Jurkat cells (ATCC TIB-152); also called huCD3
As to the kind of experiment: flow cytometry on Jurkat cells, 50 nM. The protocol: (§1) Binding of the different bispecific constructs to CD3 on Jurkat cells (ATCC #TIB-152), and the respective tumor antigen on target cells, was determined by FACS. Briefly, cells were harvested, counted and checked for viability. 0.15 - 0.2 million cells per well (in PBS containing 0.1% BSA; 90 µl) were plated in a round-bottom 96-well plate and incubated with the indicated concentration of the bispecific constructs and corresponding IgG controls (10 µl) for 30 min at 4° C. For a better comparison, all constructs and IgG controls were normalized to same molarity. After the incubation, cells were centrifuged (5 min, 350 × g), washed with 150 µl PBS containing 0.1% BSA, resuspended and incubated for further 30 min at 4° C. with 12 µl/well of a FITC-or PE-conjugated secondary antibody. Bound constructs were detected using a FACSCantoII (Software FACS Diva). The “(scFv)₂” molecule was detected using a FITC-conjugated anti-His antibody (Lucerna, #RHIS-45F-Z). For all other molecules, a FITC- or PE-conjugated AffiniPure F(ab′)2 Fragment goat anti-human IgG Fcγ Fragment Specific (Jackson Immuno Research Lab # 109-096-098 / working solution 1:20, or #109-116-170 / working solution 1:80, respectively) was used. Cells were washed by addition of 120 µl/well PBS containing 0.1% BSA and centrifugation at 350 × g for 5 min. A second washing step was performed with 150 µl/well PBS containing 0.1% BSA. Unless otherwise indicated, cells were fixed with 100 µl/well fixation buffer (BD #554655) for 15 min at 4° C. in the dark, centrifuged for 6 min at 400 × g and kept in 200 µl/well PBS containing 0.1% BSA until the samples were measured with FACS CantoII. EC50 values were calculated using the GraphPad Prism software.
(§2) In a first experiment, different bispecific constructs targeting human MCSP and human CD3 were analyzed by flow cytometry for binding to human CD3 expressed on Jurkat, human T cell leukaemia cells, or to human MCSP on Colo-38 human melanoma cells.
(Flow cytometry measures light scatter and fluorescence of single cells or particles in a stream.)

Test [3] deals with T3, human MCSP expressed on tumor cells (human, UniProt Q6UVK1 30-2322).
T3 construct: whole, on cells; On Colo-38, WM266-4, MV-3 or MDA-MB-435 cells, as named in each row; also called huMCSP; Melanoma-associated Chondroitin Sulfate Proteoglycan
As to the kind of experiment: flow cytometry on Colo-38 cells, 50 nM. The protocol: as §1, §2

In test [4] the target is T4, human CEA expressed on tumor cells (human, UniProt P06731 35-702).
T4 sequence (looked up): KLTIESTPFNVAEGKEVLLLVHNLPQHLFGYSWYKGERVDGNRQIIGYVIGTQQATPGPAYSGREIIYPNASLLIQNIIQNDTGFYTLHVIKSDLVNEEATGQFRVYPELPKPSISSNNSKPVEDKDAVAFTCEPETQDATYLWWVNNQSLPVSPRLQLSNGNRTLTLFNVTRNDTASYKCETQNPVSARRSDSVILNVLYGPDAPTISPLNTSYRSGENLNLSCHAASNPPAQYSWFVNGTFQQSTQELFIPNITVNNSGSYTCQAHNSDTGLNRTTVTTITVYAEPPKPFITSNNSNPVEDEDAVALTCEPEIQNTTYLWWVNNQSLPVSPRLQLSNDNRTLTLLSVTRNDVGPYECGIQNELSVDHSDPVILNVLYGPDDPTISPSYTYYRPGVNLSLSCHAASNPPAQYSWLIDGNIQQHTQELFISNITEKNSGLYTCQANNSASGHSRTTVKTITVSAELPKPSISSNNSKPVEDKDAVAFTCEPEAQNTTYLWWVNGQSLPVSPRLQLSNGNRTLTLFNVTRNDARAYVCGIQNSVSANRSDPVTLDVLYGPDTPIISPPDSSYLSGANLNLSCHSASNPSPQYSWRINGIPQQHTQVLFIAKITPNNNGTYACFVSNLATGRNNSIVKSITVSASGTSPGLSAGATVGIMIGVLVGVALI
In words: cell-based or functional assay.

In test [5] the target is T2, human CD3 expressed on Jurkat cells. In words: flow cytometry on Jurkat cells. The protocol: as §1
(§3) As a control, the equivalent maximum concentration of the corresponding IgGs and the background staining due to the labeled 2ndary antibody (goat anti-human FITC-conjugated AffiniPure F(ab′)2 Fragment, Fcγ Fragment-specific, Jackson Immuno Research Lab # 109-096-098) were assessed as well.

The target of test [6] is T4, human CEA expressed on tumor cells. As to the kind of experiment: flow cytometry on LS-174T cells. The protocol: Binding of the different bispecific constructs to CD3 on Jurkat cells (ATCC #TIB-152), and the respective tumor antigen on target cells, was determined by FACS. Briefly, cells were harvested, counted and checked for viability. 0.15 - 0.2 million cells per well (in PBS containing 0.1% BSA; 90 µl) were plated in a round-bottom 96-well plate and incubated with the indicated concentration of the bispecific constructs and corresponding IgG controls (10 µl) for 30 min at 4° C. For a better comparison, all constructs and IgG controls were normalized to same molarity. […] Bound constructs were detected using a FACSCantoII (Software FACS Diva). The “(scFv)₂” molecule was detected using a FITC-conjugated anti-His antibody (Lucerna, #RHIS-45F-Z). […] Unless otherwise indicated, cells were fixed with 100 µl/well fixation buffer (BD #554655) for 15 min at 4° C. in the dark, centrifuged for 6 min at 400 × g and kept in 200 µl/well PBS containing 0.1% BSA until the samples were measured with FACS CantoII. EC50 values were calculated using the GraphPad Prism software.
as §3

T2 sequence (P07766 23-207 limits assumed): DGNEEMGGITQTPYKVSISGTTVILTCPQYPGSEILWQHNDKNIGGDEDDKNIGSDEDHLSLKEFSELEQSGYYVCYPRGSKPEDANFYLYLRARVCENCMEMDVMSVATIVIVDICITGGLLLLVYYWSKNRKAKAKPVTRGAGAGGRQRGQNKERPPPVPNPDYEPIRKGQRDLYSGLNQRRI
T3 sequence (Q6UVK1 30-2322): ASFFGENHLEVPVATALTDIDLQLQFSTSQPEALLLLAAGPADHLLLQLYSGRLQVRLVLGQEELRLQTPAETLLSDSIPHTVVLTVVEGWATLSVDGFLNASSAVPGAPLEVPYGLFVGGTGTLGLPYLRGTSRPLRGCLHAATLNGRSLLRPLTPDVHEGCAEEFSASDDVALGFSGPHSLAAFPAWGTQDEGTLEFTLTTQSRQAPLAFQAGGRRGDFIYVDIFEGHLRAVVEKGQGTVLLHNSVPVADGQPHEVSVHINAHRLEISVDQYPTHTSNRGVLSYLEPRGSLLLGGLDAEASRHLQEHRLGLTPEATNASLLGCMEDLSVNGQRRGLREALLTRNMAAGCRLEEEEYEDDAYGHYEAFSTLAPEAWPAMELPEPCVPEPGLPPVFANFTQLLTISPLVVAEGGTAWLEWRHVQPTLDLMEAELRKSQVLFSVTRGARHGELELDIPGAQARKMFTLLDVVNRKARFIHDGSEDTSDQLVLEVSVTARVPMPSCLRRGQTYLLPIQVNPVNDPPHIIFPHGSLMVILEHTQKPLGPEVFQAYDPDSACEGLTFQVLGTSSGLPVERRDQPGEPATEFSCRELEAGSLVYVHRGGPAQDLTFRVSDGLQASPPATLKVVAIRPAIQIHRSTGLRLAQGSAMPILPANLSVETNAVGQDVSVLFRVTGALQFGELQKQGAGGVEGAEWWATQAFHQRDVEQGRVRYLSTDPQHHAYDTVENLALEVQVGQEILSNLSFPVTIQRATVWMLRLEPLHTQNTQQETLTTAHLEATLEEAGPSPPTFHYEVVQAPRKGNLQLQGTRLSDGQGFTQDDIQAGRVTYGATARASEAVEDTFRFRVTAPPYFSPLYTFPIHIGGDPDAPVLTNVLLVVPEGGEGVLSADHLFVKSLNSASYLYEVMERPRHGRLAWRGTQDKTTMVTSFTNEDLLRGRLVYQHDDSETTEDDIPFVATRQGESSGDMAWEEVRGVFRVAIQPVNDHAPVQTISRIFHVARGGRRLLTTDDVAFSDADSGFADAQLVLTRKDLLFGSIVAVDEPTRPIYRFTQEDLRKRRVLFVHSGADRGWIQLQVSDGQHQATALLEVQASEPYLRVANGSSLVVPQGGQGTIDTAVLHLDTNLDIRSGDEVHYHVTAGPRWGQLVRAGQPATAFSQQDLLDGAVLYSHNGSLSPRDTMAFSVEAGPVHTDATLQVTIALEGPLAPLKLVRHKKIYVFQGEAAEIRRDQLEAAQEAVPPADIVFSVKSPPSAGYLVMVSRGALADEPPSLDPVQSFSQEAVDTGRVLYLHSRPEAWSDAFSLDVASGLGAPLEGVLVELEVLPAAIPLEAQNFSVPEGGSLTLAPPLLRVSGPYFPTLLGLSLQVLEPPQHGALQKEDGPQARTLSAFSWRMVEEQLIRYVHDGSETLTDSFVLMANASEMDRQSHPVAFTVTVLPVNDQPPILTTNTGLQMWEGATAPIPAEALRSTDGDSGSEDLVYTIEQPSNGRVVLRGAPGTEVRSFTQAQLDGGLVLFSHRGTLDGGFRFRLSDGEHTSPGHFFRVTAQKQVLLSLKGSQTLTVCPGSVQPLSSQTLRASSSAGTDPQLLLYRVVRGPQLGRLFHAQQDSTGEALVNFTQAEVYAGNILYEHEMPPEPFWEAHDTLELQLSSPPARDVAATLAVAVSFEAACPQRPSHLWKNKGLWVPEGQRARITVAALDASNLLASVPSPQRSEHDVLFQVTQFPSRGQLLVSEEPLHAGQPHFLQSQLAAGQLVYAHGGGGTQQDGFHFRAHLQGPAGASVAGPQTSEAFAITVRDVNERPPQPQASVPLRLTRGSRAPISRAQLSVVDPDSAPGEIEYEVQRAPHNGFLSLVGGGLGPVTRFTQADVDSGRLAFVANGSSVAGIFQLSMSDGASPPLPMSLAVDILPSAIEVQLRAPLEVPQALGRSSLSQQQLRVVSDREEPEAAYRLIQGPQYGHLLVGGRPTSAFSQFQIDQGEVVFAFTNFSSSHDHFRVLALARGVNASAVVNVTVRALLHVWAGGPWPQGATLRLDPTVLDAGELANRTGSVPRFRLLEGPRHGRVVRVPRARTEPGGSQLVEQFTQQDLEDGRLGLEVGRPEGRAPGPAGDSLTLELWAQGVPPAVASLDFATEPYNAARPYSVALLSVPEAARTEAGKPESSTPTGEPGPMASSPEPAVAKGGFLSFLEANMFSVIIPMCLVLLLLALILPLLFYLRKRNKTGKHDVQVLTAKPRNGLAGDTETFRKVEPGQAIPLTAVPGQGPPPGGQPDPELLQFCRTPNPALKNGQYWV

B1: “2+1 IgG scFab, P329G LALA” (anti-EGFR/anti-huCD3) (bispecific antibody)
heavy 1: not shown
heavy 2: QVQLVQSGAEVKKPGSSVKVSCKASGFTFTDYKIHWVRQAPGQGLEWMGYFNPNSGYSTYAQKFQGRVTITADKSTSTAYMELSSLRSEDTAVYYCARLSPGGYYVMDAWGQGTTVTVSSASTKGPSVFPLAPSSKSTSGGTAALGCLVKDYFPEPVTVSWNSGALTSGVHTFPAVLQSSGLYSLSSVVTVPSSSLGTQTYICNVNHKPSNTKVDKKVEPKSCDKTHTCPPCPAPEAAGGPSVFLFPPKPKDTLMISRTPEVTCVVVDVSHEDPEVKFNWYVDGVEVHNAKTKPREEQYNSTYRVVSVLTVLHQDWLNGKEYKCKVSNKALGAPIEKTISKAKGQPREPQVCTLPPSRDELTKNQVSLSCAVKGFYPSDIAVEWESNGQPENNYKTTPPVLDSDGSFFLVSKLTVDKSRWQQGNVFSCSVMHEALHNHYTQKSLSLSPGK
light: DIQMTQSPSSLSASVGDRVTITCRASQGINNYLNWYQQKPGKAPKRLIYNTNNLQTGVPSRFSGSGSGTEFTLTISSLQPEDFATYYCLQHNSFPTFGQGTKLEIKRTVAAPSVFIFPPSDEQLKSGTASVVCLLNNFYPREAKVQWKVDNALQSGNSQESVTEQDSKDSTYSLSSTLTLSKADYEKHKVYACEVTHQGLSSPVTKSFNRGEC
For the molecule B1, in test [1], the binding result is “binds”.

B2: “1+1 IgG scFab, one armed inverted” (anti-MCSP/anti-huCD3) (bispecific antibody)
heavy 1: DIVLTQSPSSLSASLGDRVTISCSASQGIRNYLNWYQQRPDGTVKLLIYYTSSLHSGVPSRFSGSGSGTDYSLTISNLEPEDIATYYCQQYSKLPWTFGGGTKLEIKRTVAAPSVFIFPPSDEQLKSGTASVVCLLNNFYPREAKVQWKVDNALQSGNSQESVTEQDSKDSTYSLSSTLTLSKADYEKHKVYACEVTHQGLSSPVTKSFNRGECSGGGSGGGSEGGGSEGGGSEGGGSEGGGSGGGSGEVQLQESGPGLVKPSQSLSLTCSVTGYSITSGYYWNWIRQFPGNKLEWMGYITYDGSNNYNPSLKNRISITRDTSKNQFFLKLNSVTTEDTATYYCADFDYWGQGTTLTVSSASTKGPSVFPLAPSSKSTSGGTAALGCLVKDYFPEPVTVSWNSGALTSGVHTFPAVLQSSGLYSLSSVVTVPSSSLGTQTYICNVNHKPSNTKVDKKVEPKSCDGGGGSGGGGSGAQDKTHTCPPCPAPEAAGGPSVFLFPPKPKDTLMISRTPEVTCVVVDVSHEDPEVKFNWYVDGVEVHNAKTKPREEQYNSTYRVVSVLTVLHQDWLNGKEYKCKVSNKALPAPIEKTISKAKGQPREPQVCTLPPSRDELTKNQVSLSCAVKGFYPSDIAVEWESNGQPENNYKTTPPVLDSDGSFFLVSKLTVDKSRWQQGNVFSCSVMHEALHNHYTQKSLSLSPGK
heavy 2: not shown
light: not shown
For the molecule B2, the binding result in test [2] and in test [3] was “binds” in each case.

B3: CEA/CD3 “2+1 IgG Crossfab, inverted (CL/CH1)”; CL/CH1 exchange (CH1A1A/V9) (bispecific antibody)
heavy 1: not shown
heavy 2: QVQLVQSGAEVKKPGASVKVSCKASGYTFTEFGMNWVRQAPGQGLEWMGWINTKTGEATYVEEFKGRVTFTTDTSTSTAYMELRSLRSDDTAVYYCARWDFAYYVEAMDYWGQGTTVTVSSASTKGPSVFPLAPSSKSTSGGTAALGCLVKDYFPEPVTVSWNSGALTSGVHTFPAVLQSSGLYSLSSVVTVPSSSLGTQTYICNVNHKPSNTKVDKKVEPKSCDKTHTCPPCPAPEAAGGPSVFLFPPKPKDTLMISRTPEVTCVVVDVSHEDPEVKFNWYVDGVEVHNAKTKPREEQYNSTYRVVSVLTVLHQDWLNGKEYKCKVSNKALGAPIEKTISKAKGQPREPQVCTLPPSRDELTKNQVSLSCAVKGFYPSDIAVEWESNGQPENNYKTTPPVLDSDGSFFLVSKLTVDKSRWQQGNVFSCSVMHEALHNHYTQKSLSLSPGK
light 1: DIQMTQSPSSLSASVGDRVTITCKASAAVGTYVAWYQQKPGKAPKLLIYSASYRKRGVPSRFSGSGSGTDFTLTISSLQPEDFATYYCHQYYTYPLFTFGQGTKLEIKRTVAAPSVFIFPPSDEQLKSGTASVVCLLNNFYPREAKVQWKVDNALQSGNSQESVTEQDSKDSTYSLSSTLTLSKADYEKHKVYACEVTHQGLSSPVTKSFNRGEC
light 2: DIQMTQSPSSLSASVGDRVTITCRASQDIRNYLNWYQQKPGKAPKLLIYYTSRLESGVPSRFSGSGSGTDYTLTISSLQPEDFATYYCQQGNTLPWTFGQGTKVEIKSSASTKGPSVFPLAPSSKSTSGGTAALGCLVKDYFPEPVTVSWNSGALTSGVHTFPAVLQSSGLYSLSSVVTVPSSSLGTQTYICNVNHKPSNTKVDKKVEPKSC
notes: 66 is the DNA of 65; also called CL/CH1-exchange construct
For the molecule B3, in test [4], the “EC50 of killing (LDH release) of LS-174T cells, human PBMCs, E:T 10:1, 28 h” value was 673 pM and the “EC50 of killing (LDH release) of MKN-45 cells, human PBMCs, E:T 10:1, 28 h” value was determined as 115 pM. In test [5], this molecule came in with a concentration giving a half-maximal response (EC50) of 3.9 nM. The molecule further came in with an EC50 in test [6] of 6.7 nM.

B4: CEA/CD3 “2+1 IgG Crossfab, inverted (VL/VH)”; VL/VH exchange (CH1A1A/V9) (bispecific antibody)
heavy 1: not shown
heavy 2: QVQLVQSGAEVKKPGASVKVSCKASGYTFTEFGMNWVRQAPGQGLEWMGWINTKTGEATYVEEFKGRVTFTTDTSTSTAYMELRSLRSDDTAVYYCARWDFAYYVEAMDYWGQGTTVTVSSASTKGPSVFPLAPSSKSTSGGTAALGCLVKDYFPEPVTVSWNSGALTSGVHTFPAVLQSSGLYSLSSVVTVPSSSLGTQTYICNVNHKPSNTKVDKKVEPKSCDKTHTCPPCPAPEAAGGPSVFLFPPKPKDTLMISRTPEVTCVVVDVSHEDPEVKFNWYVDGVEVHNAKTKPREEQYNSTYRVVSVLTVLHQDWLNGKEYKCKVSNKALGAPIEKTISKAKGQPREPQVCTLPPSRDELTKNQVSLSCAVKGFYPSDIAVEWESNGQPENNYKTTPPVLDSDGSFFLVSKLTVDKSRWQQGNVFSCSVMHEALHNHYTQKSLSLSPGK
light 1: DIQMTQSPSSLSASVGDRVTITCKASAAVGTYVAWYQQKPGKAPKLLIYSASYRKRGVPSRFSGSGSGTDFTLTISSLQPEDFATYYCHQYYTYPLFTFGQGTKLEIKRTVAAPSVFIFPPSDEQLKSGTASVVCLLNNFYPREAKVQWKVDNALQSGNSQESVTEQDSKDSTYSLSSTLTLSKADYEKHKVYACEVTHQGLSSPVTKSFNRGEC
light 2: EVQLVESGGGLVQPGGSLRLSCAASGYSFTGYTMNWVRQAPGKGLEWVALINPYKGVSTYNQKFKDRFTISVDKSKNTAYLQMNSLRAEDTAVYYCARSGYYGDSDWYFDVWGQGTLVTVSSASVAAPSVFIFPPSDEQLKSGTASVVCLLNNFYPREAKVQWKVDNALQSGNSQESVTEQDSKDSTYSLSSTLTLSKADYEKHKVYACEVTHQGLSSPVTKSFNRGEC
notes: also called VL/VH-exchange construct
Regarding B4, in test [4], the “EC50 of killing (LDH release) of LS-174T cells, human PBMCs, E:T 10:1, 28 h” value worked out at 955 pM and the “EC50 of killing (LDH release) of MKN-45 cells, human PBMCs, E:T 10:1, 28 h” value stood at 243 pM. In test [5], this molecule yielded an EC50 of 4.6 nM. The molecule further had a concentration for a half-maximal effect (EC50) in test [6] of 9.3 nM.

By EC50 is commonly meant the concentration needed to bring the measured effect to its halfway point. A higher EC50 goes with a less potent agent.
